Assay results from article PMC10638775.

Molecular target: FGFR1 on NIH3T3 cells (mouse (NIH3T3 fibroblasts)) (UniProt P16092)
Experiment: flow cytometry
Conditions: SPR: Biacore T200, CM5 amine coupling, HBS running buffer (pH, salt, temperature not stated), flow cytometry: PBS, 1% BSA, 0.1% sodium azide, room temperature

FGFR1 on NIH3T3 cells (mouse (NIH3T3 fibroblasts)), sequence (P16092 22-822): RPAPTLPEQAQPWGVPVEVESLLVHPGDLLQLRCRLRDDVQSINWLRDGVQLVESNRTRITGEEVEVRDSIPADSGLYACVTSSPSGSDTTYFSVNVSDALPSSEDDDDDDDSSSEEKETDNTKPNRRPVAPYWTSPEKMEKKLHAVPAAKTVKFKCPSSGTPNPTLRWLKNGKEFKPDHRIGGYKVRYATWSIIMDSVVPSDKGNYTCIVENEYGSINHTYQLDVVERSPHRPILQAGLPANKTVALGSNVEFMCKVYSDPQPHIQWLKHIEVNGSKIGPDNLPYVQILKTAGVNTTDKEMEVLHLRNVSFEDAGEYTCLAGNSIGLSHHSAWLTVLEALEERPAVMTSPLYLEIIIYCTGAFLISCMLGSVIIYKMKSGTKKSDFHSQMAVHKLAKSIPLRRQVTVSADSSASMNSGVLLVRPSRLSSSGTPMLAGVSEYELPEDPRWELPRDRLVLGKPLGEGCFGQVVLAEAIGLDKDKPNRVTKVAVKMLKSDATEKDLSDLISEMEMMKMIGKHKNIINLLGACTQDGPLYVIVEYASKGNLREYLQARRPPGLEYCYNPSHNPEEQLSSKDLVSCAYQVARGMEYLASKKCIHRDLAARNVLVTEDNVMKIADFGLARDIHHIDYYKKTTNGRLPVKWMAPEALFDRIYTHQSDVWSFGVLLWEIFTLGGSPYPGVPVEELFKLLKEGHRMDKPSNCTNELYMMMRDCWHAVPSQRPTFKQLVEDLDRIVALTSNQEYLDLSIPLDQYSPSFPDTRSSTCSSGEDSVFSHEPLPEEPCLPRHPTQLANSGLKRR

Sequence: GCCGCGTCTTTATGGCTGGGGATGGTGTGGGTTGCGGC [FAM-FGFR-binder]
- Kd: 39 nM
